Results on five molecules are retold here after publication PMC9800556, “Kinetics of DNA strand transfer between polymerase and proofreading exonuclease active sites regulates error correction during high-fidelity replication” (The Journal of Biological Chemistry, 2022).

For data set [1], the target named is T1, T7 DNA polymerase (T7 DNA pol; T7 gp5 + E. coli thioredoxin) (Escherichia phage T7, UniProt P00581).
T1 construct: gene 5; wild-type exo-proficient (x+) gp5 catalytic subunit, purified as previously described, reconstituted with at least twofold molar excess of E. coli thioredoxin; with Thioredoxin 1
T1 sequence (P00581 whole entry): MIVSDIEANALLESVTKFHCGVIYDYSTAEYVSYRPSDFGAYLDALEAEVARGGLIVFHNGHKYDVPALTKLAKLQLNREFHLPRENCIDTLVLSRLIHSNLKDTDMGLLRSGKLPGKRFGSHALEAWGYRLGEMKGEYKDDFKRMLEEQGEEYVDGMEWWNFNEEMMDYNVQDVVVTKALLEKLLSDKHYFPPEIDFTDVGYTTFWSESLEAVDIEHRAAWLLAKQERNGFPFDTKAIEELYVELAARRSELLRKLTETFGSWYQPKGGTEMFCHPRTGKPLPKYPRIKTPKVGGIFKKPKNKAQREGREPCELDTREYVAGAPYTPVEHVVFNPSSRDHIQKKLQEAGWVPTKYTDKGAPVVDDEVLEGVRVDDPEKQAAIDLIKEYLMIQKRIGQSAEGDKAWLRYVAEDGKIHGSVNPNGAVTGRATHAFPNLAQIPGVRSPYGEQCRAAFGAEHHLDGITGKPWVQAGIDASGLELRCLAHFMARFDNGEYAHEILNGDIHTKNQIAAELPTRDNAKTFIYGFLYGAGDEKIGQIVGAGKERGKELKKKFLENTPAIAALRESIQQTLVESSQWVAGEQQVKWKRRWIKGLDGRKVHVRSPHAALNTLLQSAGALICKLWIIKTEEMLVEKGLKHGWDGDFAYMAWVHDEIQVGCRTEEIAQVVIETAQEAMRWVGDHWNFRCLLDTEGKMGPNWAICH
T1 sequence (P0AA25 2-109 partner): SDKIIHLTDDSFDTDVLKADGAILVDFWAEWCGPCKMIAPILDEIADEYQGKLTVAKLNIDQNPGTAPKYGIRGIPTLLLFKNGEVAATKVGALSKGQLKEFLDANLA
Nature of the data set: rapid-quench ssDNA excision, denaturing PAGE, global fit (KinTek Explorer). The class given is biochemical. As to conditions: read-out: Best fit. From the text: rapid-quench ssDNA excision, denaturing PAGE, global fit (KinTek Explorer) on T7 DNA polymerase (T7 DNA pol; T7 gp5 + E. coli thioredoxin) | dCMP binds to the free enzyme, acting as a weak competitive inhibitor for ssDNA binding

The target of data set [2] is T2, T7 DNA polymerase gp5 (wild-type, exo+);thioredoxin (accessory protein) (bacteriophage T7;Escherichia coli, UniProt P00581;P0AA25 1-704;2-109, |). Nature of the data set: stopped-flow fluorescence anisotropy, global fit (with tCo-27-PThio titration); 12.5 mM Mg2+; k1 1100 uM-1 s-1, k-1 44 s-1; exo site; T7 reaction buffer (composition and pH not given in the material), 12.5 mM Mg2+; 20 C stated for rapid-quench. As to conditions: protein: recombinant;recombinant; tags: ;; copies: 1;1; label: 5' 6-FAM; single strand.
T2 sequence (P00581 whole entry, chain 1 of 2): as the sequence (P00581 whole entry) above
T2 sequence (P0AA25 2-109, chain 2 of 2): as the sequence (P0AA25 2-109 partner) above

Data set [3] deals with T2, T7 DNA polymerase gp5 (wild-type, …). Nature of the data set: equilibrium fluorescence titration (Trp-tCo FRET), hyperbolic fit; 12.5 mM Mg2+; exo site; T7 reaction buffer (composition and pH not given in the material), 12.5 mM Mg2+; 20 C stated for rapid-quench. As to conditions: protein: recombinant;recombinant; tags: ;; copies: 1;1; label: tCo; single strand.
Data set [4] shares this target. Nature of the data set: equilibrium fluorescence titration (Trp-tCo FRET), quadratic fit; 2 uM thioredoxin; net Kd over pol, intermediate and exo sites; Mg2+ not stated for this titration; T7 reaction buffer (composition and pH not given in the material), 12.5 mM Mg2+; 20 C stated for rapid-quench. As to conditions: protein: recombinant;recombinant; tags: ;; copies: 1;1; label: tCo; primer/template, 18 nt template 5' overhang, 3'-terminal C:C mismatch.

Data set [5] has the same target. Nature of the data set: equilibrium fluorescence titration (Trp-tCo FRET), quadratic fit; 12.5 mM Mg2+, 2 uM thioredoxin; net Kd over all sites; T7 reaction buffer (composition and pH not given in the material), 12.5 mM Mg2+; 20 C stated for rapid-quench. As to conditions: protein: recombinant;recombinant; tags: ;; copies: 1;1; label: tCo; primer/template, 18 nt template 5' overhang, A:A mismatch buried by one terminal C:G pair.

As to `Nc1ccn([C@H]2C[C@H](O)[C@@H](COP(=O)(O)O)O2)c(=O)n1` [dCMP], the Ki in data set [1] is 5650 µM.

B1: FAM-27-PThio (ssDNA)
DNA: CCGTCGCAGCCGTCCAACCAACTACAC
modifications: Sp phosphorothioate at the 3'-terminal linkage (A*C)
One may read the Kd as the concentration at which binding is half-saturated. On to B1, for which the Kd in data set [2] is 0.04 ± 0.0014 µM.

B2: tCo-27-PThio (ssDNA)
DNA: CCGTCGCAGCCGTCCAACCAACTACAC
modifications: tCo (1,3-diaza-2-oxophenoxazine, C analog) at position 25; Sp phosphorothioate at the 3'-terminal linkage
B2: in data set [3], the Kd was around 0.06 µM.

B3: tCo-27-PThio/45-3'MM-PThio (dsDNA)
DNA 1: CCGTCGCAGCCGTCCAACCAACTACAC
DNA 2: GGACGGCATTGGATCGATCTGTAGTTGGTTGGACGGCTGCGACGG
modifications: primer: tCo at position 25, Sp phosphorothioate at the 3'-terminal linkage; template: phosphorothioate at the 3'-terminal linkage
For the molecule B3, in data set [4], the Kd is 0.0007 ± 0.0001 µM.

B4: tCo-27-PThio/45-BMM-PThio (dsDNA)
DNA 1: CCGTCGCAGCCGTCCAACCAACTACAC
DNA 2: GGACGGCATTGGATCGATGAGTAGTTGGTTGGACGGCTGCGACGG
modifications: primer: tCo at position 25, Sp phosphorothioate at the 3'-terminal linkage; template: phosphorothioate at the 3'-terminal linkage
Consider B4, for which the Kd in data set [5] is around 0.0005 µM.
